Source: article PMC7948448

Target: Bmh1 (UniProt P29311)
Test: Strep-Bmh1 pull-down, stained SDS-PAGE
Conditions: reference: unmodified Hst2

Substance | binding against the reference (sites S320) | binding against the reference (sites S324)
Hst2 (from UniProt P53686) Hst2 S320ph | gained | 
Hst2 (from UniProt P53686) Hst2 S324ph |  | gained
